# Target: T1, cdkn3_human CDKN3 (UniProt Q16667)
# T1 sequence: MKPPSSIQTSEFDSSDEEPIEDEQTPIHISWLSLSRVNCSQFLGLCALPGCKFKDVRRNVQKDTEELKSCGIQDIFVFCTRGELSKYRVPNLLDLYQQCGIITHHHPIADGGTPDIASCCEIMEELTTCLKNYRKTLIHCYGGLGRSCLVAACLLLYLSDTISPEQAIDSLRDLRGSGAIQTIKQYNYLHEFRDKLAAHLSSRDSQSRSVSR
substance,measurement,value
Cyclin-dependent kinase 2 (Homo sapiens) (from UniProt P24941) K237V,effect of a mutation on the interaction,disrupting interaction

# Reference: IntAct's records for PubMed 15530371
